Laboratory results reported in patent publication US20240301051A1 (BEIGENE SWITZERLAND, published 2024).

T1: human claudin 9 (CLDN9) (human, UniProt O95484 1-217)
T1 construct: also called human CLDN9
T1 sequence: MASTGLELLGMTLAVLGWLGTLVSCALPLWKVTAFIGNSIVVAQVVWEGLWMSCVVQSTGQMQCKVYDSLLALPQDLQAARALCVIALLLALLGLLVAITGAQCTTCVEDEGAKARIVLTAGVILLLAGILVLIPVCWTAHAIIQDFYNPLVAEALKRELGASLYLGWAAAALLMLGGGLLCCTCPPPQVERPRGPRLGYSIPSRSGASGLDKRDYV

T2: human claudin 6 (CLDN6) (human, UniProt P56747 1-220)
T2 construct: also called human CLDN6; hCLDN6
T2 sequence: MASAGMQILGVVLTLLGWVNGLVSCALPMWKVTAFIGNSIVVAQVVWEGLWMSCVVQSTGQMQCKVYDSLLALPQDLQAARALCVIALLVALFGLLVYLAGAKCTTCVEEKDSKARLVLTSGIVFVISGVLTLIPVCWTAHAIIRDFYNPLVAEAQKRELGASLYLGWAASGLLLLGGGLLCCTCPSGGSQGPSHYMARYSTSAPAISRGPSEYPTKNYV

B1: BG87P-34 (antibody, V domains shown)
VH: EVQLQESGGGLVQPGGSLRLSCAASGYSFSDYHINWVRQAPGKGLEWVGYIYPGSGHTKYNEKFKGRFTISRDTSSNTAYLQMNSLRAEDTAVYYCARSGIYHYVSSYYFDHWGQGTLVTVSS
VL: DIQMTQSPSSLSASVGDRVTITCKASQDAGSAVAWYQQKPGKAPKLLIYWASTRHTGVPSRFSGSGSGTDFTLTISSLQPEDFATYYCQQYSSYTFGGGTKLEIK
notes: Final lead clone, framework IGHV3-23 and IGKV1-39; also called BG87-34
B2: BG87P-33 (antibody, V domains shown)
VH: EVQLQESGGGLVQPGGSLRLSCAASGYSFTDYHINWVRQAPGKGLEWVSYIYPGSGHTKYNEKFKGRFTISRDTSKNTAYLQMNSLRAEDTAVYYCARSGIYHYVSSYYFDHWGQGTLVTVSS
VL: DIQMTQSPSTLSASVGDRVTITCKASQDAGSAVAWYQQKPGKAPKLLIYWASTRHTGVPSRFSGSGSGTEFTLTISSLQPDDFATYYCQQYSSYTFGGGTKVEIK
notes: Framework-swapped variant; also called BG87-33

Assays:
human claudin 9 (CLDN9) = molecular target: T1, human claudin 9 (CLDN9); experiment: flow cytometry on HEK293T/human CLDN9 cells (non-specific binding validation)
human claudin 6 (CLDN6) = molecular target: T2, human claudin 6 (CLDN6); experiment: flow cytometry on HEK293T/human CLDN6 cells
Method: For affinity determination, CLDN6 over-expressing HEK293T cells and cancer cell line PA-1 which express high levels of human CLDN6 were used to evaluate the binding activity of BG87P related engineering variants. Live cells were seeded in 96-well plate, and were incubated with a series of dilutions of chBG87P and engineered variants thereof. Goat anti-human IgG was used as second antibody to detect antibody binding to the cell surface. EC50 values for dose-dependent binding to CLDN6 expressing cell lines were determined by fitting the dose-response data to the four-parameter logistic model with GraphPad Prism. Cell binding activity of 1st round of BG87P humanization variants against HEK293T/human CLDN6 were compared to chBG87P and shown in FIG. 1A.

Binder | binding result (human claudin 9 (CLDN9)) | EC50 (read off the curve) (human claudin 6 (CLDN6)) [nM]
B1 | no binding | –
B2 | – | ~30
